Consider 2 molecules from publication PMC4992955, “Pichia pastoris Fep1 is a [2Fe-2S] protein with a Zn finger that displays an unusual oxygen-dependent role in cluster binding”.

Series [1] concerns the target Flag-Fep1 (1–208) WT (Pichia pastoris). In words: SEC; analytical gel-filtration on Superdex-75 (10/300) in 25 mM MOPS pH 7, 150 mM NaCl; calibrated with conalbumin, ovalbumin, carbonic anhydrase and RNase A. (In gel filtration, larger molecules generally elute earlier.)
For series [2] the target is unchanged. The experiment in a line: SAXS; solution SAXS at ESRF beamline BM29, 293 K, three dilutions of each sample; as-purified and after reconstitution of the [2Fe-2S] cluster; molecular weights from ab initio calculation with ATSAS.
In a further series the target is T1, MBP-Fep1 (41-192) WT (Pichia pastoris (GS115), UniProt A4VAR6 41-192).
T1 sequence: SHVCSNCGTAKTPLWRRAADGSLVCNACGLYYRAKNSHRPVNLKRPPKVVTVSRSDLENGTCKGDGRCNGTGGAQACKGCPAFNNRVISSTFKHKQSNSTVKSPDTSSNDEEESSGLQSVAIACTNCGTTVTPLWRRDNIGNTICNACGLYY
In words: EMSA; 5 uM ZnSO4, 5 uM FeCl3; 12.5 mM Hepes pH 7.9, 75 mM NaCl, 4 mM MgCl2, 1 mM EDTA, 10% glycerol, 4 mM Tris-HCl pH 7.9, 0.6 mM DTT, 1 ug poly(dI-dC)2, 5 uM ZnSO4, 5 uM FeCl3; 100-250 ng protein, 1 ng probe, 20 min at 25 C; 6% native gel at 4 C. Conditions: protein: recombinant; tags: MBP fusion; label: 32P end-label (alpha-32P); 5' overhangs: 4 nt on S3, 3 nt on S4 as printed; 32 bp duplex. In general terms: Mobility shift assays separate free from complexed probe on a gel.

As a reminder, the stoichiometry N is the number of molecules, sites or subunits per partner or assembly. “Flag-Fep1 (1–208) WT (domain or fragment)”: the stoichiometry N in series [1] and in series [2] was 2 in each case.

B1: fetgata2/fetgata1 (FET3 promoter GATA probe) (dsDNA)
DNA 1: GGCGATTGAACTGATAATTTTACTAAATAAGTGGAA
DNA 2: GGATTCCACTTATTTAGTAAAATTATCAGTTCAAT
On to B1, for which, in the series with MBP-Fep1 (41-192) WT, the binding result is recorded as “binds”.
